# B1: Ribonuclease wild type, P00648 (protein)
# chain: MMKMEGIALKKRLSWISVCLLVLVSAAGMLFSTAAKTETSSHKAHTEAQVINTFDGVADYLQTYHKLPDNYITKSEAQALGWVASKGNLADVAPGKSIGGDIFSNREGKLPGKSGRTWREADINYTSGFRNSDRILYSSDWLIYKTTDHYQTFTKIR
# Conditions: Bacillus amyloliquefaciens, pH 6.3, Fluorescence, whole UniProt chain shown
# [1] = 25 °C, GdnHCl, MES 450 mM, reversible: yes (100%)
# [2] = Thermal, MES 50 mM, reversible: yes (>85%)
protein,measurement,setting,value
B1,denaturant m value,[1],4.51 kcal/mol/M
same,denaturant midpoint (higher = more stable),[1],1.97 M
same,unfolding free energy,[1],8.88 kcal/mol
same,Tm,[2],53.9 °C
same,unfolding enthalpy (van 't Hoff),[2],125 kcal/mol

# Reference: FireProtDB (doi:10.1021/bi00437a058)
